Changes are numbered by the printed parent chain. Names and notes keep the numbering of the source.
B1: murine TMEM16F mutant F518H (natural protein, UniProt Q6P9J9 1-911, looked up)
chain: MQMMTRKVLLNMELEEDDDEDGDIVLENFDQTIVCPTFGSLENQQDFRTPEFEEFNGKPDSLFFTDGQRRIDFILVYEDESKKENNKKGTNEKQKRKRQAYESNLICHGLQLEATRSVSDDKLVFVKVHAPWEVLCTYAEIMHIKLPLKPNDLKTRSPFGNLNWFTKVLRVNESVIKPEQEFFTAPFEKSRMNDFYILDRDSFFNPATRSRIVYFILSRVKYQVMNNVNKFGINRLVSSGIYKAAFPLHDCRFNYESEDISCPSERYLLYREWAHPRSIYKKQPLDLIRKYYGEKIGIYFAWLGYYTQMLLLAAVVGVACFLYGYLDQDNCTWSKEVCDPDIGGQILMCPQCDRLCPFWRLNITCESSKKLCIFDSFGTLIFAVFMGVWVTLFLEFWKRRQAELEYEWDTVELQQEEQARPEYEAQCNHVVINEITQEEERIPFTTCGKCIRVTLCASAVFFWILLIIASVIGIIVYRLSVFIVFSTTLPKNPNGTDPIQKYLTPQMATSITASIISHIIIMILNTIYEKVAIMITNFELPRTQTDYENSLTMKMFLFQFVNYYSSCFYIAFFKGKFVGYPGDPVYLLGKYRSEECDPGGCLLELTTQLTIIMGGKAIWNNIQEVLLPWVMNLIGRYKRVSGSEKITPRWEQDYHLQPMGKLGLFYEYLEMIIQFGFVTLFVASFPLAPLLALVNNILEIRVDAWKLTTQFRRMVPEKAQDIGAWQPIMQGIAILAVVTNAMIIAFTSDMIPRLVYYWSFSIPPYGDHTYYTMDGYINNTLSVFNITDFKNTDKENPYIGLGNYTLCRYRDFRNPPGHPQEYKHNIYYWHVIAAKLAFIIVMEHIIYSVKFFISYAIPDVSKITKSKIKREKYLTQKLLHESHLKDLTKNMGIIAERIGGTVDNSVRPKLE
notes: TMEM16F (anoctamin-6), murine; point mutant F518H; A 3C recognition site stands between TMEM16F and the C-terminal Myc and SBP tags; no cleavage is described; also called F518H^noCa; F518H^Ca; source: TMEM16F KO cells in suspension culture, transient transfection (PEI MAX); purified (Strep-tactin, SEC on Superose 6) in digitonin, or reconstituted into MSP 2N2 nanodiscs (3 POPC:1 POPG)
B2: murine TMEM16F double mutant F518A/Q623A (natural protein, UniProt Q6P9J9 1-911, looked up)
chain: B1 chain with H518A, Q623A
notes: TMEM16F (anoctamin-6), murine; double mutant F518A and Q623A; A 3C recognition site stands between TMEM16F and the C-terminal Myc and SBP tags; no cleavage is described; source: TMEM16F KO cells in suspension culture, transient transfection (PEI MAX); purified (Strep-tactin, SEC on Superose 6) in GDN
B3: murine TMEM16F mutant N562A (natural protein, UniProt Q6P9J9 1-911, looked up)
chain: B1 chain with H518F, N562A
notes: TMEM16F (anoctamin-6), murine; point mutant N562A; A 3C recognition site stands between TMEM16F and the C-terminal Myc and SBP tags; no cleavage is described; also called N562A^Ca; N562A^Cacc; source: TMEM16F KO cells in suspension culture, transient transfection (PEI MAX); purified (Strep-tactin, SEC on Superose 6) in digitonin

Key:
[1] = target: the molecule itself; assay: cryo-EM structure; protein in digitonin (20 mM HEPES pH 7.4, 150 mM NaCl, 2 mM EGTA, 0.1% digitonin), 1.5-2 mg/ml; Ca2+-free, or with 2 mM free CaCl2 and 0.01 mM diC8-PI(4,5)P2; homodimer
[2] = target: the molecule itself; assay: cryo-EM structure; protein in GDN (0.03% in the SEC buffer), Ca2+-bound; homodimer

| Protein | binding result [1] | binding result [2] |
| --- | --- | --- |
| B1 | binds |  |
| B2 |  | binds |
| B3 | binds |  |

Source: PMC9637102, “Structural basis for the activation of the lipid scramblase TMEM16F” (Nature Communications, 2022)
